{
  "source": "patent US10100120B2",
  "about": "“Antibody which specifically binds to human CRTH2” (KYOWA HAKKO KIRIN CO., LTD, priority 2015, dated 2018)",
  "test_system": "human basophils",
  "assay": "Basophil depletion (cytotoxic) activity in human peripheral blood cells, flow cytometry",
  "assay_type": "cell-based",
  "conditions": "37° C., 20 hours",
  "experimental": "Human peripheral blood collected by adding a heparin sodium injection liquid was centrifuged at 4° C. and 1500 rpm for 30 minutes, and the plasma was recovered.\nAfter the plasma was recovered, PBS (NACALAI TESQUE, Inc.) was added to the pellet containing the red blood up to the original volume of blood and the pellet was suspended. Next, to 1 mL of the suspension, 10 mL of hemolyzing solution [solution obtained by diluting 10×RBC Lysis buffer (eBioscience) 10 times with sterile water] was added to be mixed by inversion. The resultant was allowed to stand at room temperature for 10 minutes and centrifuged at room temperature and 1500 rpm for 5 minutes and washed twice with PBS after the supernatant was removed therefrom.\nThereafter, the cell pellet was suspended with the recovered plasma and the cells were seeded in a 48-well plate at 300 μL/well, each of chLym2, humanized Lym2 antibodies LV0HV0, LV0HV1, and LV0HV2a, or an isotype control antibody [IgG1 antibody prepared according to the method described in Example 5 using a vector encoding an anti-2,4-dinitrophenol (DNP) IgG1 antibody described in Clin Cancer Res 2005, 11(8), 3126 to 3135 (hereinafter, referred to as anti-DNP IgG1 antibody)] were added at each final concentrations of 1000, 100, 33, 11, 3.7, 1.2, 0.4, and 0.01 ng/mL to cause a reaction in a 5% CO2 incubator at 37° C. for 20 hours.\nAfter the reaction, the cell fluid in each well was recovered, 10 mL of SM was added thereto, 200 μL per sample of CountBright Absolute Counting Beads, for flow cytometry (Molecular Probes) was added as control beads, and the fluid was centrifuged at 4° C. and 2000 rpm for 10 minutes, and then the supernatant was removed. The resultant was washed twice with SM, 10000 μg/mL of IgG from human serum (Sigma-Aldrich Co. LLC) diluted with SM was added at 300 μL/sample and suspended to cause a reaction at 4° C. for 30 minutes. […]\nThe cells were washed twice with SM, suspended by SM containing 1% of 7-AAD Staining Solution (BD Biosciences), allowed to stand at 4° C. for 10 minutes, and the fluorescent intensity was analyzed by flow cytometry (BD Biosciences, FACS CantoII).\nHuman eosinophils were detected as 7-AAD negative siglec8-PE positive fractions in granulocyte fractions of FSC-SSC deployment. Human basophils were detected as 7-AAD negative fractions, CD123-PC-Cy7 positive fractions, FcεRI-APC positive fractions in lymphocyte fractions of FSC-SSC deployment. The cell depletion activity was evaluated by analyzing the count number of each cell per a certain number of CountBright. […]",
  "data": [
    {"molecule": "LV0HV1: humanized Lym2 antibody, VL LV0 (SEQ ID NO: 33), VH HV1 (SEQ ID NO: 51) (antibody, V domains shown) VH: EVQLVESGGGVVQPGRSLRLSCAASGFTFSNYYMAWVRQAPGKGLEWVATISYDGSSTYYRDSVKGRFTISRDNAKNSLYLQMNSLRAEDTATYYCARHRGYYYSGAGYFDYWGQGTMVTVSS VL: DIVMTQTPLSLPVTPGESASISCRSSQSLEYSDGYTYLEWYLQKPGQSPQVLIYGVSNRFSGVPDRFSGSGSGTDFTLKISRVEAEDVGVYYCFQATHDPLTFGQGTKLEIK", "values": [
      {"measurement": "cytotoxic activity against basophils", "setting": "Example 8, 0.01-1000 ng/mL, FIG. 3", "value": "comparable to the chimeric Lym2 antibody chLym2"},
      {"measurement": "removal of basophils", "setting": "Example 14, 0.1-1000 ng/mL, FIG. 11", "value": "removed"}
    ]}
  ]
}
